Reference: the supplement of paper PMC12042874
± gives the uncertainty stated by the source.

Test: amyloid nucleation score (Sup35N fusion, yeast selection) (log enrichment); library NNK3; higher = more nucleation; inactive = no reads after selection
Outline: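 Three technical output replicates were used for random libraries. Psi-negative yeast expressing peptides of 20 random codons fused to Sup35N were induced with 100 μM copper sulfate for 24 hours and grown 7 days at 30°C on medium lacking adenine and uracil, and input and output plasmid inserts were Illumina-sequenced, excluding sequences with under 100 input reads. The nucleation score is the DiMSum log enrichment of output over input reads, centred on the mode score of non-aggregating sequences.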

Substance | amyloid nucleation score
YVRNQVNFSLAWLLITKLTK | 1.94 ± 0.085
SVDYDMARSVGCPFWSPKRV | inactive
NMRCSIHARGSRHGVRDDTQ | inactive
NLAYTMRGTELICTYVSILP | inactive
RLNHKVFRSLCKKFLRWHGS | inactive
RPVAFPIR | inactive
DSMVCSHCWLFDEGSYVYGQ | inactive
SVTFTSSVLYEGSKVSAFLL | inactive
IDMILC | inactive
FVLKRYRCFLYLVQYDISTL | -0.326 ± 0.98
SYNGYRSGLFGYGSTVSFIS | inactive
HKWAI | inactive
AWASIDVSNAL | inactive
GSTGVIDDLSKVHCGGMCVD | inactive
NGLGSTRMNQGHKLVFTNSI | inactive
NMIKPSFFIIVVVNTQGFDA | 2.97 ± 0.063
CQLAV | inactive
SMTHRPTAVHSDVHGQCVKW | inactive
LHPLYRFSANSSKDLFTSRT | inactive
CFASWN | inactive
DHPYQRLIEWWLLCIYGSMY | inactive
KMFWLVTHRLN | inactive

Substance | amyloid nucleation score
VSSKDGLFCCL | 0.209 ± 0.66
SMASK | -0.64 ± 0.82
NQVVAVG | inactive
RSPTNV | inactive
CCRLHRGISVNPILQSYGIM | inactive
MDRASVCLEGGMSMVWLRYV | inactive
RVSSFMSLTVGRYGKLHRDS | inactive
WIRYTFYQNFRIL | -0.744 ± 0.8
ERELGQRLSCTGNSTVWSYE | inactive
SAMFTGNLYFDFVDPCYSGW | inactive
ICFFRGAARMNCLGYQGITR | inactive
FWKKLWNSSF | inactive
VTRGVLLCEPVTGMHQVACG | inactive
QYVVSGMTYFWRYMRLVNVR | inactive
MRYFFLTRNLGLRAEPVC | inactive
SFRFVSLVLFAVNDNYGRCW | 1.61 ± 0.13
RTCSLRCFCYCHLYFYDVNT | inactive
MLDAQSASWYYFRGSLFDVR | inactive
FKLSMLA | inactive
TPSRREMDVCVFFSPFAMHM | 0.896 ± 0.095
NGCSS | inactive
FYSFWYPFTVSAMRLYWCSW | inactive

Substance | amyloid nucleation score
INHLSWCPVYFYFWNPVYLR | 1.49 ± 0.11
RCAPFNFFPCHIWRYVLTRK | inactive
CNSGWGTYVV | inactive
VFPPEMRVFPLFCW | inactive
IFHGSLYGFHYEPCLQAWAA | inactive
PLRKCAMCSWVSSGEGPTYP | 0.483 ± 0.24
LTSPREMAWCPHDTAICGTT | inactive
IFLYNVLIGLCLDNPYKLFG | inactive
LHVLDYDPDLRCFQMLYMCG | inactive
LSVCVRPWRNKTDVVGNGNK | inactive
LGHYAKPLSSVQQNRTNMGA | inactive
HNSACFANSDEVSVASRAMT | 2.45 ± 0.08
FIIWAMDWVFASRL | inactive
PECVVKSTN | inactive
LLWCGFQDCEMKC | inactive
ARKMTIRPPLFPAWHSFELK | inactive
HYMRMQTSLANRYIARNVAR | inactive
SESSS | inactive
RHVNCLAQLSDCKLTIM | 0.396 ± 0.38
SMLAFDLGGCAQTVTGWW | inactive
ARISEFTESWNRRCYTLRYC | inactive
